± gives the standard deviation of the averaged measurements.
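Note: ATP exposure 15 min at 22 °C before imaging.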

This series concerns ATP. The series is described as follows: switch fluorescence ratio, 500 uM ATP over buffer (Cy3 cluster intensity, sum of 5 cycles each) (fold (ratio)); higher = stronger signal-on switching upon ATP binding; sequences stand for … in TCGTCGGCAGCGTCAGATGTGTATAAGAGACAGTTTTTTTTTTTTTTTTTTTTTTTTT…TC. The conditions noted are these: aptamer strand: ATP DNA aptamer (quencher-CACCTGGGGGAGTATTGCGGAGGAAGG + anchor), 100 nM annealed; ATP concentration: 500 uM. Put shortly: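 Imaging in selection buffer was followed by imaging after 15 min with 500 uM ATP at 22 °C, for Cy3-labelled switching-strand clusters annealed to 100 nM quencher-labelled ATP aptamer on a modified Illumina MiSeq flow-cell. Five of these buffer/ATP cycles ran, separated by NaOH stripping and re-annealing. The fluorescence ratio per cluster is summed target-cycle over summed buffer-cycle Cy3 intensity, averaged per switch-domain sequence; clusters outside 100-1000 RFU were removed.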
In the case of TTCGATGGGG, the switch fluorescence ratio worked out at 0.993 ± 0.048.

As to CATATCTAGG, the switch fluorescence ratio came out at 0.997 ± 0.025.

Turning to TTGGTATATT, the switch fluorescence ratio was 1.02 ± 0.016.

As for GGACGGCGGG, the switch fluorescence ratio worked out at 1 ± 0.034.

As to AAATCGTCCA, the switch fluorescence ratio is 0.992 ± 0.057.

For the sequence TCGGGTGGTT, the switch fluorescence ratio is 1 ± 0.016.

As to TCTGTATTTG, the switch fluorescence ratio was found to be 0.981 ± 0.028.

TCATTTGGCA: the switch fluorescence ratio worked out at 0.983 ± 0.01.

For the sequence TTCTTTTTGC, the switch fluorescence ratio came out at 0.9678 ± 0.0084.

Turning to GAACATGGGC, the switch fluorescence ratio came out at 1.012 ± 0.0084.

Consider CATGTCGAGC, for which the switch fluorescence ratio was 1.02 ± 0.059.

With AGGGTCTGAG, the switch fluorescence ratio is 1.01 ± 0.026.

Consider AAGCGTTGTG, for which the switch fluorescence ratio was 0.9984 ± 0.008.

As for TTGGAGCACG, the switch fluorescence ratio was found to be 1.03 ± 0.049.

On to TATGCTAGGG, for which the switch fluorescence ratio turned out to be 0.977 ± 0.036.

Consider AGTAATTGAC, for which the switch fluorescence ratio was determined as 1.1 ± 0.013.

With CAAGATGTTG, the switch fluorescence ratio is 0.987 ± 0.047.

As to ATGTTGTCTG, the switch fluorescence ratio was 1 ± 0.035.

Take AACGTTAGGG: the switch fluorescence ratio was determined as 0.998 ± 0.029.

For TGATGTTACG, the switch fluorescence ratio stood at 0.9871 ± 0.0046.

On to TATTTTGCGC, for which the switch fluorescence ratio came to 1.02 ± 0.026.

As for CGTTTTTACA, the switch fluorescence ratio came out at 1 ± 0.015.

In the case of TTCGGTTATA, the switch fluorescence ratio was 0.986 ± 0.053.

In the case of TATAAAAGGG, the switch fluorescence ratio amounted to 1.03 ± 0.078.

As for TGGGGTTGGA, the switch fluorescence ratio was found to be 1.01 ± 0.025.

For TTTTTTCCTG, the switch fluorescence ratio was 0.989 ± 0.011.

As to CAAGTGAAGC, the switch fluorescence ratio came to 0.9539 ± 0.005.

Consider GGACCGGGAC, for which the switch fluorescence ratio turned out to be 1.12 ± 0.11.

In the case of CAGGGGCACG, the switch fluorescence ratio came out at 1.06 ± 0.04.

For AAAGTCCTA, the switch fluorescence ratio stood at 0.982 ± 0.015.

GCGCGTTTTT: the switch fluorescence ratio is 1 ± 0.016.

As for TGTAAGACCC, the switch fluorescence ratio worked out at 1.06 ± 0.033.

As to AGGGTTTTAG, the switch fluorescence ratio came out at 0.994 ± 0.019.

For the sequence CCTATTGGGT, the switch fluorescence ratio was 1.02 ± 0.013.

Regarding TTTTAGGGAG, the switch fluorescence ratio was determined as 0.992 ± 0.03.

Regarding ATCATTGGGC, the switch fluorescence ratio was 0.988 ± 0.025.

Consider ATTGGAGGTT, for which the switch fluorescence ratio was 0.995 ± 0.013.

For TCGTCGTTTG, the switch fluorescence ratio turned out to be 0.991 ± 0.01.

On to ACTTAGCATT, for which the switch fluorescence ratio turned out to be 1.14 ± 0.024.

With ATTGAATTCG, the switch fluorescence ratio is 1 ± 0.011.

Take TTTAGTTGTA: the switch fluorescence ratio stood at 1.018 ± 0.0077.

TTTATGATCG: the switch fluorescence ratio is 0.977 ± 0.039.

Turning to TCTATCTTTA, the switch fluorescence ratio is 0.996 ± 0.019.

Turning to AAAAAATGCT, the switch fluorescence ratio came to 1.01 ± 0.014.

In the case of AGGCTCCTCG, the switch fluorescence ratio was determined as 1.039 ± 4.4e-05.

On to TATCATGCCG, for which the switch fluorescence ratio amounted to 0.967 ± 0.037.

As to GAGATTGTGG, the switch fluorescence ratio was 0.9652 ± 0.0048.

Turning to GATGGTAAAC, the switch fluorescence ratio is 1.05 ± 0.056.

On to AAACTAGCGC, for which the switch fluorescence ratio came out at 0.981 ± 0.015.

Take GACGTTGGGG: the switch fluorescence ratio is 0.977 ± 0.01.

Consider CCTTTAATGT, for which the switch fluorescence ratio came out at 1.01 ± 0.022.

ATTATGAATC: the switch fluorescence ratio turned out to be 1.02 ± 0.078.

Consider TAGTTGGATG, for which the switch fluorescence ratio came to 1 ± 0.038.

For CCCCGGATGG, the switch fluorescence ratio is 1.26 ± 0.22.

For GTGAGTGTAT, the switch fluorescence ratio was found to be 0.9682 ± 0.0092.

Regarding GGTCCGGGGA, the switch fluorescence ratio amounted to 0.989 ± 0.013.

In the case of GAGGCTAGTG, the switch fluorescence ratio worked out at 0.988 ± 0.0092.

Turning to CTGTTTGGTA, the switch fluorescence ratio stood at 1 ± 0.055.

For TGACAACCGG, the switch fluorescence ratio worked out at 1.05 ± 0.021.

TTGGAAAATG: the switch fluorescence ratio was found to be 1.02 ± 0.037.

Consider AGGCCCCCGA, for which the switch fluorescence ratio is 1.02 ± 0.066.

With CGTTGCTATG, the switch fluorescence ratio came out at 1.01 ± 0.028.

With AGGAGCGGTA, the switch fluorescence ratio was determined as 1.1 ± 0.12.

On to AAAAGTTATT, for which the switch fluorescence ratio came to 0.986 ± 0.027.

With CAAGGGTGGT, the switch fluorescence ratio turned out to be 1.03 ± 0.023.

Take AAGGGAGGTT: the switch fluorescence ratio was determined as 1 ± 0.027.

Take TAAGGTATGA: the switch fluorescence ratio came to 1.002 ± 0.0076.

As to TCATTTTCCG, the switch fluorescence ratio was 0.996 ± 0.043.

In the case of TGCTGTAATA, the switch fluorescence ratio stood at 1.035 ± 0.0031.

For GATATTGTAG, the switch fluorescence ratio came out at 0.986 ± 0.026.

As to CAGTAGTTTT, the switch fluorescence ratio is 1 ± 0.017.

With CATTCTGACC, the switch fluorescence ratio came to 1.08 ± 0.036.

ACCCGGGATT: the switch fluorescence ratio was 1.13 ± 0.098.

Consider GTGGGGCTTA, for which the switch fluorescence ratio amounted to 0.994 ± 0.032.

As to GGTTGGGATG, the switch fluorescence ratio is 0.951 ± 0.022.

With GTAGTAGGGC, the switch fluorescence ratio turned out to be 1.06 ± 0.016.

On to CAGGTCGTTT, for which the switch fluorescence ratio is 1.032 ± 0.0069.

Take GCAGGAAATG: the switch fluorescence ratio came out at 0.992 ± 0.011.

Values taken from the supplement of paper PMC10126150.
